Source: patent publication US12441790B2, “Binding proteins to the human thrombin receptor, PAR4” (MONASH UNIVERSITY, priority 2017, dated 2025)
“Also recorded” adds a separate entry of the source.

Columns and labels:
native PAR4 peptide = biological target: T1, native PAR4 peptide (Homo sapiens, UniProt Q96RI0); experiment: ELISA screening of hybridoma supernatants, native vs KLH-linked PAR4 peptide; format: binding; settings: first screening; second sub-clone
T1 construct: host or cells: synthetic peptide
Experimental: (§1) 96-well ELISA plates were coated with 50 μl of antigen diluted to a concentration of 4 μg/ml in coating buffer (0.1M Sodium Hydrogen Carbonate (NaHCO3) (Merck, #1.06329.0500)). Plates were incubated overnight at 4° C.
(§2) Wells were then washed with an automated plate washer (300 μl 1×PBS, 3 times). The wells were blocked with 200 μl of blocking buffer (3% BSA/1×PBS (BSA: (Sigma, #1001647742)) for 1 hour at room temperature followed by washing as above.
(§3) 50 μl of undiluted hybridoma cell culture supernatant was added into appropriate wells and incubated at room temperature for 1 hour followed by washing as above. […] Wells were washed as above. A set of substrate tablets (1×silver, 1×gold) into 20 ml of ddH20 by shaking vigorously on the thermomixer for 6 mins at room temperature. 50 μl of substrate ([…]™ p-Nitrophenyl phosphate Tablets (Sigma-Aldrich, N2770-50SET)) was added into each well and incubated for 20-25 mins at room temperature. 50 μl of STOP solution (2M Sodium Hydroxide, Solid (NaOH) (Merck, Cas #1310-73-2)) was added into each well to stop the reaction. Absorbance was read at 405 nm immediately after adding STOP solution with the ELISA reader, using the ‘RdrOle4’ software.

[1] = tested on: PAR4 peptide vs PAR1, PAR2 and PAR3 peptides; experiment: ELISA specificity screening, PAR4 peptide vs PAR1, 2 or 3 peptide; format: binding, human; settings: hybridoma supernatant
Experimental: as §1, §2
as §3, with “50 μl of STOP solution (2M Sodium Hydroxide, Solid (NaOH) (Merck, Cas #1310-73-2)) was added into each well to stop the reaction.” left out
Hybridoma supernatants were initially screened for binding to the immunising PAR4 peptide sequence ([…]-KLH (SEQ ID NO: 4)) by antigen microarray, with binding determined by fluorescence intensity signal over background (signal from medium alone). […]

hPAR4 peptide [2] = biological target: T2, hPAR4 peptide (Homo sapiens, UniProt Q96RI0); experiment: mAb capture SPR (Biacore, anti-mouse Fc capture); format: binding
T2 construct: host or cells: synthetic peptide
Experimental: (§4) Biacore analysis was performed on a Biacore T200 using two different methods either an anti-mouse Fc capture approach or using a similar method as described above using the ProteoOn system.
A series S CM5 sensor chip was activated with standard EDC/NHS amine coupling chemistry using the manufacturers recommended protocol with Goat anti-mouse IgG Fc. Anti-hPAR4 mAbs were captured at 1-2 ug/ml for 2 minutes at 10 ul/minute on flow cell 2 (FC2) and flow cell 1 (FC1) was used as a reference channel. […] Blank injections of buffer alone were also performed. All injections were performed in duplicate and in a random order. After each capture/injection/dissociation cycle the chip was regenerated with a 30 second injection of 0.1M Glycine pH2.0.
(§5) For the mAb capture method low levels of ligand mAb and analyte hPAR4 were used in an attempt to produce a 1:1 binding interaction, this method has been used successfully to measure kinetics and affinity KD's (Kamat V and Rafique A (2017) Analytical Biochemistry 530:75-86), despite using a whole IgG.
(§6) The kinetics of the binding interaction between the mAbs and hPAR4 was measured using Surface Plasmon Resonance (SPR; Biacore) by two different methods: 1. Anti-mouse Fc mAb capture method and 2. Streptavidin (SA) chip to capture biotinylated peptide. The ka(on) rate and kd(off) rates and KD were measured and fitted to a Langmuir model using the Biacore evaluation software.

human platelets = experiment: Thrombin-induced platelet aggregation assay; format: cell-based
Experimental: Platelet aggregation was measured by light transmission aggregometry in a 96-well plate format. Human isolated platelets (2×10^8/ml) were pre-treated for 10 mins at 37° C. with dimethylsulfoxide (DMSO) (1% v/v), the PAR1 antagonist vorapaxar (90 nM), the anti-PAR4 antibody 5RC3 (20-100 μg/ml), or a combination of vorapaxar and 5RC3. Platelets were treated with one of thrombin (0.1 U/ml) and aggregation was analysed at 37° C. in a FLUOstar OPTIMA plate reader (BMG Labtech) using a 595 nm excitation filter, for a period of 50 min (10 read cycles with 5 min double orbital shake period between each read). Optical density was normalised against the blank (maximum) and unstimulated platelets (minimum) and expressed as % maximum.
Human isolated platelets of different PAR4 variants were assessed for their responses to PAR4 agonists.
The binding of five anti-PAR4 monoclonal antibodies to human platelets was examined by flow cytometry.

human isolated platelets = experiment: Platelet phosphatidylserine exposure (annexin V binding); format: cell-based; settings: pre-treatment 5 min; regardless of donor genotype
Experimental: Platelet surface phosphatidylserine (PS) exposure was determined by measuring annexin V binding. Human isolated platelets (5×10^7/ml) were pre-treated with 5A.RC3 (5 mins) at the concentrations indicated and were incubated with Alexa Fluor 488-conjugated annexin-V (1:100) prior to stimulation with thrombin. After stimulation, platelets were resuspended in modified Tyrode's buffer for flow cytometry analysis (FACSCalibur, BD Biosciences).
Pro-coagulant activity in isolated human platelets was examined by measuring phosphatidylserine (PS) exposure in response to stimulation with PAR4-AP or thrombin (1 U/ml) The percentage of annexin V positive cells was measured. The platelets were pre-incubated with 5A.RC3 for 5 mins. […] The 10 min (final data point) is shown for simplicity.

[3] = biological target: T3, hPAR4-biotinylated peptide (Homo sapiens, UniProt Q96RI0); experiment: SA chip biotin peptide SPR (Biacore, streptavidin capture); format: binding
T3 construct: host or cells: synthetic peptide
Experimental: as §4
A series S sensor chip SA was conditioned using the manufacturers recommended protocol and immobilised with 1 ug/ml hPAR4-biotinylated peptide on FC2 and hPAR1-biotinylated peptide as a control onto FC1. […] Blank injections of buffer alone were also performed. All injections were performed in duplicate and in a random order. After each capture/injection/dissociation cycle the chip was regenerated with a 30 second injection of 0.1M Glycine pH2.0.
as §5, §6

hPAR4 peptide [4] = biological target: T2, hPAR4 peptide; experiment: ELISA of purified mAbs on hPAR4 peptide; format: binding; settings: dilutions of purified mAbs
Experimental: as §6
The experiment was completed with purified mAbs diluted in PBS instead of hybridoma supernatants.
The reactivity of seven purified anti-hPAR4 mAbs was analysed by ELISA (see Table 4).

T2 sequence (Q96RI0 35-54 limits assumed): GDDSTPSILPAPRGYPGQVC
T3 sequence (Q96RI0 with tags, fused parts or gaps limits assumed): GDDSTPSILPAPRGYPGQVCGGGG

Fold binding native vs KLH-linked PAR4 peptide (native PAR4 peptide): 19.3
ka (hPAR4 peptide [2]): 330000 M⁻¹ s⁻¹
kd (hPAR4 peptide [2]): 0.00487 s⁻¹
ka [3]: 1.32e+06 M⁻¹ s⁻¹
kd [3]: 0.000417 s⁻¹
reactivity with hPAR4 peptide by ELISA (hPAR4 peptide [4]): very similar binding curves
B1: 5A.RC3: anti-PAR4 monoclonal antibody, IgG2a/K, VH SEQ ID NO:11 and VL SEQ ID NO:12 (antibody, V domains shown)
VH: QVQLVESGGGVVQPGRSLRLSCAASGFTLSNYGMHWVRQAPGKGLEWVSVIWYDGSNKHYADSVKGRFTISRDNSKNTLYLQMNSLRAEDTAVYYCARESIVEVLPPFDYWGQGTLVTVSS
VL: KIVLTQSPGTLSLSPGERVTLSCRASQRVRNNYLAWFQQKPGQAPRLFIYGASSRATGIPDRFSGSGSGTDFIFTISRLEPEDFAVYYCQQYGNSYTFGQGTKLEIK
modifications: VH of 5A.RC3; VL of 5A.RC3
selectivity to human PAR4 peptide over PAR1, PAR2 and PAR3 [1]: 16 fold
inhibition of platelet aggregation at the highest concentration tested (human platelets; 0.1 U/ml thrombin): Near maximal inhibition
inhibition of thrombin-induced platelet aggregation (human platelets; in the presence of a PAR1 antagonist, genotypes TT, AT, AA): inhibited in a dose dependent manner
inhibition of thrombin-induced phosphatidylserine exposure (human isolated platelets): dose-dependently inhibited thrombin-induced phosphatidylserine exposure; also recorded: inhibited thrombin-induced phosphatidylserine exposure in a dose dependent manner
